Data reported in patent US20130183306A1 (INTERNATIONAL DRUG DEVELOPMENT BIOTECH, published 2013).

Molecular target: T1, human complement C1q (from natural human complement serum) (human, UniProt P02745 23-245; P02746 28-253; P02747 29-245)
T1 construct: Whole human complement serum was added to the coated MAb; also called complement human serum
Assay: ELISA, MAb coated on the plate, natural human complement added, detection with anti-human C1q peroxidase conjugate
Procedure: The binding of human complement serum to MAbs was assessed by an ELISA binding assay. The 96-well plates (Nunc) were coated overnight at 4° C. with varying MAb concentrations. After washing, the plates were blocked with PBS-5% BSA for 1 h, and incubated for 1 h with 2.5 μl/well of natural human complement (Sigma). Then, 100 μl/well of a 1/500 dilution of sheep anti-human C1q peroxidase-conjugated Ab (Abd Serotec) added and incubated for 1h. The plates were developed with 100 μl per well of TMB substrate (Uptima Interchim). After H₂SO₄ addition, the OD was measured at 450 nm/630 nm using a MRX II microplate reader. Data represent mean+/−SD of two independent experiments.

T1 sequence (P02745 23-245 limits assumed, chain 1 of 3): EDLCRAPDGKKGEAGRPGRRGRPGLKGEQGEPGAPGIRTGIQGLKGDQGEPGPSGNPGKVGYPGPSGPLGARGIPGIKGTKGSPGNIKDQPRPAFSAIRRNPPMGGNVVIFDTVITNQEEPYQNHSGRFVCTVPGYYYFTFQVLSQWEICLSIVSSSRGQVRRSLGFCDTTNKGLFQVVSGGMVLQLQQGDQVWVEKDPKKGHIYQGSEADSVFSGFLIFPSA
T1 sequence (P02746 28-253 limits assumed, chain 2 of 3): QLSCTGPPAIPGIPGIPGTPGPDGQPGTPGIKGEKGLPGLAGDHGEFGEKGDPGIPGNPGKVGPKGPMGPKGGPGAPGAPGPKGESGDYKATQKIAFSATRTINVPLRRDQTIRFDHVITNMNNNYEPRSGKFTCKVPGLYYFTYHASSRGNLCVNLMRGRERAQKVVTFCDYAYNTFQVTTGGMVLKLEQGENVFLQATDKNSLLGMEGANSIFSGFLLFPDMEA
T1 sequence (P02747 29-245 limits assumed, chain 3 of 3): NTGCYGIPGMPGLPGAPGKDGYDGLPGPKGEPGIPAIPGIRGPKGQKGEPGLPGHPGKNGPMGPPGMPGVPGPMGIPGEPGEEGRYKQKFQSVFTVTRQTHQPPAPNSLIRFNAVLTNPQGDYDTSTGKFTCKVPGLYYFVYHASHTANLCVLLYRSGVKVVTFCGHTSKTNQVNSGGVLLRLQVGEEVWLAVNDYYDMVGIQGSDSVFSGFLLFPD

B1: chR005-1 Fc24 (antibody, human IgG1, name in EU numbering)
heavy: QVQLQQSGAELVRPGSSVKISCKASGYAFSSYWVNWMKQRPGQGLEWIGQIYPGDGDTNYNGKFKGRATVTADKSSSTSYMQFSSLTSEDSAVYFCARSITTVVGCAMDYWGQGTSVTVSSASTKGPSVFPLAPSSKSTSGGTAALGCLVKDYFPEPVTVSWNSGALTSGVHTFPAVLQSSGLYSLSSVVTVPSSSLGTQTYICNVNHKPSNTKVDKKVEPKSCDKTHTCPPCPAPELLGGPSVFLLPPKPKDTLMISRTPEVTCVVVDVSHEDPEVKFNWYVDGVEVHNAKTKPPEEQYNSTLRVVSLLTVLHQDWLNGKEYKCKVSNAALPAPIAKTISKAKGQPREPQVYTLPPSRDELTKNQVSLTCLVKGFYPSDIAVEWESNGQPENNYKTTPLVLDSDGSFFLYSKLTVDKSRWQQGNVFSCSVMHEALHNHYTQKSLSLSPGK
light: DIQMTQSSAYLSVSLGGRVTITCKASDHINNWLAWYQHKPGNAPRLLISGATTLETGVPSRFSGSGSGKDYTLSITSLQTEDVATYYCQQSWNTPWTFGGGTK
notes: also called chR005-1 MAb Fc24 optimized variant; not shown: human light chain constant region
binding result: binds
